The record followed here is IntAct's records for PubMed 8940095.

This assay has as its target pdli5_rat Pdlim5 (UniProt Q62920).

Sequence of pdli5_rat Pdlim5 (Q62920 whole entry): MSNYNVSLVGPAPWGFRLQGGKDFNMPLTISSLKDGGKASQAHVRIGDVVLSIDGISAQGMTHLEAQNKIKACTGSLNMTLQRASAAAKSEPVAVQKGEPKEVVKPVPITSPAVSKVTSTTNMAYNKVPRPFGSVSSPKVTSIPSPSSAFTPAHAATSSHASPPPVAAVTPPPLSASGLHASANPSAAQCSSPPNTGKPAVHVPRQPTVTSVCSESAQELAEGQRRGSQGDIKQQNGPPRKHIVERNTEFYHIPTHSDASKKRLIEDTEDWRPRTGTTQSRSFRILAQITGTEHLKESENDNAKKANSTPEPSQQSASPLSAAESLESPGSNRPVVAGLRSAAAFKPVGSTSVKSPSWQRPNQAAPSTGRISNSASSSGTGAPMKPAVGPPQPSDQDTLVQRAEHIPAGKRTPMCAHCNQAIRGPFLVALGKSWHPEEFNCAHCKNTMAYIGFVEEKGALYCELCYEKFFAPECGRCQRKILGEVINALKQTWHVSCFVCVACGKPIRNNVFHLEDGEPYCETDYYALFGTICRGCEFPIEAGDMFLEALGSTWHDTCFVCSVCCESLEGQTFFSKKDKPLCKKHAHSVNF
Sequence of Protein kinase C beta type (Rattus norvegicus (Rat)), P68403-1 K371M (P68403 whole entry K371M): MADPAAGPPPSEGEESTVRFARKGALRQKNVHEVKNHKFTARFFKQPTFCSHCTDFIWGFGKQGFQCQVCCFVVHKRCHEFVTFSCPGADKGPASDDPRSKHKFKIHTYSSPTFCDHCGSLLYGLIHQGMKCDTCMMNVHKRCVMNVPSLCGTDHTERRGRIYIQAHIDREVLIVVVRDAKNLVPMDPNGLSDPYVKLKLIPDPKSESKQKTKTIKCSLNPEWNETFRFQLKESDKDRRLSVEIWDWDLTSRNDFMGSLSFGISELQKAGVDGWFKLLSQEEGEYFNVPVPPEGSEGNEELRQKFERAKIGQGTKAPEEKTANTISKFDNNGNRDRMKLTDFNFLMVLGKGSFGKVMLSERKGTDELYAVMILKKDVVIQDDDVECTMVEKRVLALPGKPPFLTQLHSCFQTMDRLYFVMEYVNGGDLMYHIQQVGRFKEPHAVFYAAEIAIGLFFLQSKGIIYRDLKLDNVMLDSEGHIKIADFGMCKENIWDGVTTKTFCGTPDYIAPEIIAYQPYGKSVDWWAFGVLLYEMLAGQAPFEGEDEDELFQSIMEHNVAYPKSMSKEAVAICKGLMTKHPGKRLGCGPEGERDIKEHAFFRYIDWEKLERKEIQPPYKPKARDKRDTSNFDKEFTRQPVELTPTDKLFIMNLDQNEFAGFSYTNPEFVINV

Regarding “Protein kinase C beta type (Rattus norvegicus (Rat)), P68403-1 K371M”, the “effect of a mutation on the interaction” value is “with no effect”.
